Assay results reported in the supplement of paper PMC5998384.

Tests used:
HeLa Kyoto [1] = assay: melting temperature (median over replicates), in situ; higher = more thermally stable
HeLa Kyoto [2] = assay: solubility change mitosis vs G1/S (difference of NP-40 vs SDS log2 ratios) (log2 ratio difference); higher = more soluble in mitosis
HeLa Kyoto [3] = assay: solubility in G1/S (NP-40 vs SDS abundance) (log2 ratio); higher = more soluble; settings: cell cycle stage: G1/S
HeLa Kyoto [4] = assay: thermal stability score vs G1/S (z-score of summed log2 fold changes over temperatures); higher = more thermally stable than in G1/S
[5] = cell cycle stage: early G1 (4.5 h after nocodazole release)
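Throughout, for melting temperature (median over replicates), in situ: HeLa Kyoto cells synchronized by double thymidine or nocodazole block, proteins quantified by TMT10plex mass spectrometry, three independent biological replicates.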
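Throughout, for solubility change mitosis vs G1/S (difference of NP-40 vs SDS log2 ratios): synchronized HeLa Kyoto cells (double thymidine block for G1/S, nocodazole release for mitosis), protein amounts in NP-40 versus SDS lysates quantified by mass spectrometry, three biological replicates.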
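Throughout, for solubility in G1/S (NP-40 vs SDS abundance): HeLa Kyoto cells arrested at G1/S by double thymidine block, proteins quantified by TMT10plex mass spectrometry in mild NP-40 versus SDS extracts, three biological replicates.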
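Throughout, for thermal stability score vs G1/S (z-score of summed log2 fold changes over temperatures): synchronized HeLa Kyoto cells, proteins quantified by TMT10plex mass spectrometry, three biological replicates, mitosis taken 0.5 h after nocodazole release, G1/S directly after double thymidine block.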

Row | Sequence | melting temperature (HeLa Kyoto [1]; cell cycle stage: G1/S) [°C] | melting temperature (HeLa Kyoto [1]; cell cycle stage: mitosis) [°C] | solubility change mitosis (log2) (HeLa Kyoto [2]) | solubility in G1/S (log2) (HeLa Kyoto [3]) | thermal stability score (HeLa Kyoto [4]; [5]) | thermal stability score (HeLa Kyoto [4]; cell cycle stage: mitosis)
1 | MVSKMIIENFEALKSWLSKTLEPICDADPSALAKYVLALVKKDKSEKELKALCIDQLDVFLQKETQIFVEKLFDAVNTKSYLPPPEQPSSGSLKVEFFPHQEKDIKKEEITKEEEREKKFSRRLNHSPPQSSSRYRENRSRDERKKDDRSRKRDYDRNPPRRDSYRDRYNRRRGRSRSYSRSRSRSWSKERLRERDRDRSRTRSRSRTRSRERDLVKPKYDLDRTDPLENNYTPVSSVPSISSGHYPVPTLSSTITVIAPTHHGNNTTESWSEFHEDQVDHNSYVRPPMPKKRCRDYDEKGFCMRGDMCPFDHGSDPVVVEDVNLPGMLPFPAQPPVVEGPPPPGLPPPPPILTPPPVNLRPPVPPPGPLPPSLPPVTGPPPPLPPLQPSGMDAPPNSATSSVPTVVTTGIHHQPPPAPPSLFTADTYDTDGYNPEAPSITNTSRPMYRHRVHAQRPNLIGLTSGDMDLPPREKPPNKSSMRIVVDSESRKRTIGSGEPGVPTKKTWFDKPNFNRTNSPGFQKKVQFGNENTKLELRKVPPELNNISKLNEHFSRFGTLVNLQVAYNGDPEGALIQFATYEEAKKAISSTEAVLNNRFIKVYWHREGSTQQLQTTSPKVMQPLVQQPILPVVKQSVKERLGPVPSSTIEPAEAQSASSDLPQNVTKLSVKDRLGFVSKPSVSATEKVLSTSTGLTKTVYNPAALKAAQKTLLVSTSAVDNNEAQKKKQEALKLQQDVRKRKQEILEKHIETQKMLISKLEKNKTMKSEDKAEIMKTLEVLTKNITKLKDEVKAASPGRCLPKSIKTKTQMQKELLDTELDLYKKMQAGEEVTELRRKYTELQLEAAKRGILSSGRGRGIHSRGRGAVHGRGRGRGRGRGVPGHAVVDHRPRALEISAFTESDREDLLPHFAQYGEIEDCQIDDSSLHAVITFKTRAEAEAAAVHGARFKGQDLKLAWNKPVTNISAVETEEVEPDEEEFQEESLVDDSLLQDDDEEEEDNESRSWRR [RBM26] | 47 | 48.9 | 0.0367 | -0.109 | 1.92 | 4.06
2 | MVSRVQLPPEIQLAQRLAGNEQVTRDRAVRKLRKYIVARTQRAAGGFTHDELLKVWKGLFYCMWMQDKPLLQEELGRTISQLVHAFQTTEAQHLFLQAFWQTMNREWTGIDRLRLDKFYMLMRMVLNESLKVLKMQGWEERQIEELLELLMTEILHPSSQAPNGVKSHFIEIFLEELTKVGAEELTADQNLKFIDPFCRIAARTKDSLVLNNITRGIFETIVEQAPLAIEDLLNELDTQDEEVASDSDESSEGGERGDALSQKRSEKPPAGSICRAEPEAGEEQAGDDRDSGGPVLQFDYEAVANRLFEMASRQSTPSQNRKRLYKVIRKLQDLAGGIFPEDEIPEKACRRLLEGRRQKKTKKQKRLLRLQQERGKGEKEPPSPGMERKRSRRRGVGADPEARAEAGEQPGTAERALLRDQPRGRGQRGARQRRRTPRPLTSARAKAANVQEPEKKKKRRE [RRP1] | 46.6 | 48.8 | 0.797 | -1.24 | 2.67 | 7.98
3 | MVSWMICRLVVLVFGMLCPAYASYKAVKTKNIREYVRWMMYWIVFALFMAAEIVTDIFISWFPFYYEIKMAFVLWLLSPYTKGASLLYRKFVHPSLSRHEKEIDAYIVQAKERSYETVLSFGKRGLNIAASAAVQAATKSQGALAGRLRSFSMQDLRSISDAPAPAYHDPLYLEDQVSHRRPPIGYRAGGLQDSDTEDECWSDTEAVPRAPARPREKPLIRSQSLRVVKRKPPVREGTSRSLKVRTRKKTVPSDVDS [REEP4] | 53.4 | 53.2 | -0.135 | 0.0372 | -1.06 | -1.58
4 | MVSWMISRAVVLVFGMLYPAYYSYKAVKTKNVKEYVRWMMYWIVFALYTVIETVADQTVAWFPLYYELKIAFVIWLLSPYTKGASLIYRKFLHPLLSSKEREIDDYIVQAKERGYETMVNFGRQGLNLAATAAVTAAVKSQGAITERLRSFSMHDLTTIQGDEPVGQRPYQPLPEAKKKSKPAPSESAGYGIPLKDGDEKTDEEAEGPYSDNEMLTHKGLRRSQSMKSVKTTKGRKEVRYGSLKYKVKKRPQVYF [REEP3] | 52.8 | 54.9 | -0.0257 | -0.258 | -1.24 | -0.732
5 | MVVFVGRRLPALLGLFKKKGSAKAENDKHLSVGPGQGPGSAVDEHQDNVFFPSGRPPHLEELHTQAQEGLRSLQHQEKQKLNKGGWDHGDTQSIQSSRTGPDEDNISFCSQTTSYVAESSTAEDALSIRSEMIQRKGSTFRPHDSFPKSGKSGRRRRERRSTVLGLPQHVQKELGLRNEREAPGTPRAPGARDAVRIPTVDGRPRGTSGMGARVSLQALEAEAEAGAETEAMLQRHIDRVYRDDTFVGRSTGTRAPPLTRPMSLAVPGLTGGAGPAEPLSPAMSISPQATYLSKLIPHAVLPPTVDVVALGRCSLRTLSRCSLHSASPASVRSLGRFSSVSSPQPRSRHPSSSSDTWSHSQSSDTIVSDGSTLSSKGGSEGQPESSTASNSVVPPPQGGSGRGSPSGGSTAEASDTLSIRSSGQLSGRSVSLRKLKRPPPPPRRTHSLHQRGLAVPDGPLGLPPKPERKQQPQLPRPPTTGGSEGAGAAPCPPNPANSWVPGLSPGGSRRPPRSPERTLSPSSGYSSQSGTPTLPPKGLAGPPASPGKAQPPKPERVTSLRSPGASVSSSLTSLCSSSSDPAPSDRSGPQILTPLGDRFVIPPHPKVPAPFSPPPSKPRSPNPAAPALAAPAVVPGPVSTTDASPQSPPTPQTTLTPLQESPVISKDQSPPPSPPPSYHPPPPPTKKPEVVVEAPSASETAEEPLQDPNWPPPPPPAPEEQDLSMADFPPPEEAFFSVASPEPAGPSGSPELVSSPAASSSSATALQIQPPGSPDPPPAPPAPAPASSAPGHVAKLPQKEPVGCSKGGGPPREDVGAPLVTPSLLQMVRLRSVGAPGGAPTPALGPSAPQKPLRRALSGRASPVPAPSSGLHAAVRLKACSLAASEGLSSAQPNGPPEAEPRPPQSPASTASFIFSKGSRKLQLERPVSPETQADLQRNLVAELRSISEQRPPQAPKKSPKAPPPVARKPSVGVPPPASPSYPRAEPLTAPPTNGLPHTQDRTKRELAENGGVLQLVGPEEKMGLPGSDSQKELA [KIAA1522] | 52 | 52.4 | -0.199 | 0.188 | 0.117 | 0.588
